{
  "source": "patent US20210106703A1",
  "about": "“RADIOIMMUNOCONJUGATES IN COMBINATION WITH OTHER DRUGS AS TREATMENT AGAINST NHL” (Nordic Nanovector ASA, priority 2017, published 2021)",
  "molecules": {"B1": {"name": "Lutetium-177 [^177Lu]-lilotomab satetraxetan (conjugate, chains of the INN, looked up)", "VH": "EIQLQQSGPELVKPGASVKVSCKASGYSFTDYNMYWVKQSHGKSLEWIGYIDPYNGDTTYNQKFKGKATLTVDKSSSTAFIHLNSLTSEDSAVYYCARSPYGHYAMDYWGQGTSVTVSS", "VL": "DIVMTQSHKLLSTSVGDRVSITCKASQDVSTAVDWYQQKPGQSPKLLINWASTRHTGVPDRFTGSGSGTDYTLTISSMQAEDLALYYCRQHYSTPFTFGSGTKLEIK", "modifications": "177Lu satetraxetan chelator conjugate"}},
  "key": {"OCI-Ly8 cells": {"test_system": "OCI-Ly8 cells", "test": "Cell cycle analysis (PI, Muse flow cytometer)", "type": "cell-based, human", "settings": "OCI-Ly8, 1 μM inhibitor + ^177Lu-lilotomab, versus ^177Lu-lilotomab alone", "description": "Cells were harvested at 0 […], and fixed in 70% ethanol at -20° C. for at least 3 h. After staining with the Muse® Cell Cycle Assay Kit (Merck Millipore, Molsheim, France) using propidium iodide in the dark at room temperature for 30 min, cell cycle distribution was analyzed using a Muse® flow cytometer. The percentage of cells in the G0/G1, S and G2/M was calculated (mean of three experiments in triplicate) and the effect of WEE-1 and MYT-1 kinase inhibitors on the cell cycle was assessed."}, "Ramos cells": {"test_system": "Ramos cells", "test": "Immunoreactive fraction, one point modified Lindmo method", "type": "binding, human", "settings": "75 million Ramos cells/ml", "description": "The immunoreactivity of the radioimmunoconjugates was measured using Ramos cells and a one point modified Lindmo method. The cell concentration used was 75 million cells/ml. The immunoreactivity of the conjugates was higher than 70%.\nThe immunoreactivity of the radioimmunoconjugates was measured using Ramos cells and a one point modified Lindmo method (1, 2). The cell concentration used was 75 million cells/ml. The immunoreactivity of the conjugates was higher than 70%.\nThe immunoreactivity of the radioimmunoconjugates was measured using Ramos cells and a one point modified Lindmo method. The cell concentration used was 75 million cells/ml. The immunoreactivity of the conjugates was higher than 70%)."}, "[1]": {"test_system": "CDK1 and its phosphorylations, p345-Chk1, Wee-1, Myt-1, CDK7 in Rec-1 cells", "test": "Protein expression by Western blot", "type": "cell-based, human", "description": "(§1) Protein expression was assessed in 1×10^6 Ramos, DOHH2 or Rec-1 cells/mL grown in 12-well plates and exposed for 18 h to 0 and 6 MBq/mL of ^177Lu-lilotomab. Cells were harvested at 0, 2 h, 18 h, 1 d, 2 d and 3 d of RIT. At each time point, cells were rinsed and incubated in RIPA buffer (Santa Cruz) at 4° C. for 30 minutes. Cells were centrifuged and supernatant (containing proteins) were collected. Proteins were electrophoresed through SDS-PAGE using 12% poly-acrylamide gels and electrotransferred onto nitrocellulose membranes. Blots were incubated with anti-CDK1, anti-p-CDK1(Tyr15) (clone 10A11), anti-p-CDK1(Thr14), anti-p-CDK1(Thr161), anti-CDK7, anti-Wee-1 (clone D10D2), anti-Myt-1, anti-p-CHK1 (Ser345) and anti-human GAPDH (1/1000, Cell Signaling Technologies, Leiden, The Netherlands) primary antibodies. Blot were washed and incubated with horseradish peroxidase-conjugated anti-mouse Ig (115-036-072, Jackson ImmunoResearch) or with horseradish peroxidase-conjugated anti-rabbit Ig (7074, Cell Signaling). Signal detection of immunoblots was carried out using the enhanced chemiluminescence protocol according to the manufacturer's instructions (Clarity™ Western ECL blotting substrates, 1705061, BioRad). PXi analyser (Ozyme) was used to measure levels of protein expression."}, "[2]": {"test_system": "CDK1 and its phosphorylations, p345-Chk1, Wee-1, Myt-1, CDK7 in DOHH2 cells", "test": "Protein expression by Western blot", "type": "cell-based, human", "description": "as §1"}, "[3]": {"test_system": "CDK1 and its phosphorylations, p345-Chk1, Wee-1, Myt-1, CDK7 in Ramos cells", "test": "Protein expression by Western blot", "type": "cell-based, human", "description": "as §1"}},
  "data": [
    {"molecule": "C=CCn1c(=O)c2cnc(Nc3ccc(N4CCN(C)CC4)cc3)nc2n1-c1cccc(C(C)(C)O)n1", "note": "[MK-1775]", "values": [
      {"measurement": "Proportion of cells in G2/M, inhibitor combined with ^177Lu-lilotomab", "setting": "OCI-Ly8 cells", "value": "reduction of the fraction of G2/M cells"}
    ]},
    {"molecule": "B1", "values": [
      {"measurement": "Immunoreactivity", "setting": "Ramos cells", "value": "higher than 70%"},
      {"measurement": "Level of phosphorylated CHK1 (Ser345)", "setting": "[1]; Rec-1", "value": "remained stable until 18 h before progressively decreasing"},
      {"measurement": "Activating pThr161 CDK1 phosphorylation", "setting": "[1]; Rec-1, 6 MBq/mL for 18 h", "value": "undetectable"},
      {"measurement": "CDK1 level", "setting": "[1]; Rec-1, 6 MBq/mL for 18 h", "value": "quite stable"},
      {"measurement": "Expression of Myt-1", "setting": "[1]; Rec-1, 18 h after treatment", "value": "decreased"},
      {"measurement": "Expression of Wee-1", "setting": "[1]; Rec-1, between 18 and 48 h", "value": "comparable in control and treated"},
      {"measurement": "Levels of CDK7", "setting": "[1]; Rec-1, compared with Ramos cells", "value": "stable or increased"},
      {"measurement": "Expression of Wee-1", "setting": "[2]; DOHH2", "value": "became undetectable at 24 h post-treatment"},
      {"measurement": "Activating pThr161 CDK1 phosphorylation", "setting": "[2]; DOHH2, 6 MBq/mL for 18 h", "value": "persistent increase"},
      {"measurement": "CDK1 level", "setting": "[2]; DOHH2, 6 MBq/mL for 18 h", "value": "decreased in DOHH2 at 48 h and 72 h"},
      {"measurement": "Inhibitory pTyr15 and pThr14 CDK1 phosphorylations", "setting": "[2]; DOHH2, 6 MBq/mL for 18 h", "value": "dropped respectively at 24 h and 48 h"},
      {"measurement": "Expression of Myt-1", "setting": "[2]; DOHH2, 18 h after treatment", "value": "decreased"},
      {"measurement": "Level of phosphorylated CHK1 (Ser345)", "setting": "[2]; DOHH2, at 18-24 h", "value": "increased"},
      {"measurement": "Levels of CDK7", "setting": "[2]; DOHH2, compared with Ramos cells", "value": "stable or increased"},
      {"measurement": "Activating pThr161 CDK1 phosphorylation", "setting": "[3]; 6 MBq/mL for 18 h", "value": "transient low levels"},
      {"measurement": "CDK1 level", "setting": "[3]; 6 MBq/mL for 18 h", "value": "quite stable"},
      {"measurement": "Inhibitory pTyr15 and pThr14 CDK1 phosphorylations", "setting": "[3]; 6 MBq/mL for 18 h", "value": "high persistent levels"},
      {"measurement": "Expression of Myt-1", "setting": "[3]; 18 h after treatment", "value": "decreased"},
      {"measurement": "Level of phosphorylated CHK1 (Ser345)", "setting": "[3]; at 18-24 h", "value": "increased"},
      {"measurement": "Expression of Wee-1", "setting": "[3]; between 18 and 48 h", "value": "comparable in control and treated"}
    ]}
  ]
}
